EC50 hC3 cleavage and EC50 of hC3 cleavage data for 39 molecules are collected here from US20240018502A1.

Numbering of substitutions follows the chain as printed. Numbers in names are those of the source.

This experiment concerns the target plasma purified human complement protein C3 (human) (UniProt P01024). The experiment can be described thus: cell-based or functional assay.

Sequence of plasma purified human complement protein C3 (human) (P01024 23-667, chain 1 of 2): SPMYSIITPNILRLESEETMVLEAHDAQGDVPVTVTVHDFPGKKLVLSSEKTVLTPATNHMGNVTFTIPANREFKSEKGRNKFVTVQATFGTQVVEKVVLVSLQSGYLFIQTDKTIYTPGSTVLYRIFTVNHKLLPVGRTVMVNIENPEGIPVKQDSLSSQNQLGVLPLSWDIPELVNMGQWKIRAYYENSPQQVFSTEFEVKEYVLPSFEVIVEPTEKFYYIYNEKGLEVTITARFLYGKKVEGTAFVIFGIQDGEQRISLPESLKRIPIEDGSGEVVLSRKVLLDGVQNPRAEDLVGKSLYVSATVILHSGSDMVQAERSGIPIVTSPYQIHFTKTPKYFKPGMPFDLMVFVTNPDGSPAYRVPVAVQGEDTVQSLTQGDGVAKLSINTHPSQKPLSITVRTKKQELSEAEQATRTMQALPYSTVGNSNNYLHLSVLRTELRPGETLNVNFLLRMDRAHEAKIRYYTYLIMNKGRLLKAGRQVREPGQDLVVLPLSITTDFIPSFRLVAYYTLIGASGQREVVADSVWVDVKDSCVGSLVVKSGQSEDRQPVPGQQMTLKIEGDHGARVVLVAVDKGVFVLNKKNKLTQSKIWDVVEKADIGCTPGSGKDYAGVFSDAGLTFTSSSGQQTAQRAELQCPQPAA
Sequence of plasma purified human complement protein C3 (human) (P01024 672-1663, chain 2 of 2): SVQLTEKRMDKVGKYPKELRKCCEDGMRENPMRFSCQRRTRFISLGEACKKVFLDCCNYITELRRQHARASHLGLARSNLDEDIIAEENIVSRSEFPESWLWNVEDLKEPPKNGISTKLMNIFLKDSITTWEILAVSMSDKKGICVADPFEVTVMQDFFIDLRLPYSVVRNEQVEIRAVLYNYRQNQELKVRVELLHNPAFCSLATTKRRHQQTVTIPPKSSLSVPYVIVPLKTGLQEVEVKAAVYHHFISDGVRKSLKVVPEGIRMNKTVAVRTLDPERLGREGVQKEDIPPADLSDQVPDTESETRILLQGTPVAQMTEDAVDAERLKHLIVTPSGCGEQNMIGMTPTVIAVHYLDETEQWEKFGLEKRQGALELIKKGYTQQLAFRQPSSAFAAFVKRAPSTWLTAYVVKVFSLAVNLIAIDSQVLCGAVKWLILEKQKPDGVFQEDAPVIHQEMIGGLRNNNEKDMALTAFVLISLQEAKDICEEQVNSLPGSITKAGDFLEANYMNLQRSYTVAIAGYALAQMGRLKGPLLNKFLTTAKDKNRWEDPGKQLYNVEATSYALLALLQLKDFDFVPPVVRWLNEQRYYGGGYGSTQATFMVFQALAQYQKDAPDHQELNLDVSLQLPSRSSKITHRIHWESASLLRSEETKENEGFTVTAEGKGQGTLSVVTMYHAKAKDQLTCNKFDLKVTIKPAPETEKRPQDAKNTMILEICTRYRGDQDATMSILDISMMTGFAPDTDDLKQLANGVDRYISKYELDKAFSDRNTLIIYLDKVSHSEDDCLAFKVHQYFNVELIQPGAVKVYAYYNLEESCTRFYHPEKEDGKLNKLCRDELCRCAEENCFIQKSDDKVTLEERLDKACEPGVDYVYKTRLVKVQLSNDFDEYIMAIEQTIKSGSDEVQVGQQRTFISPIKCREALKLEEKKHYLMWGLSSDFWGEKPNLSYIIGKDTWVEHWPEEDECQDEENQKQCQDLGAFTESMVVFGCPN

B1: MTSP-1 protease domain A35V/I41S/Y59F/C122S/Q192D/D217V (enzyme)
chain: VVGGTDADEGEWPWQVSLHVLGQGHSCGASLISPNWLVSAAHCFIDDRGFRYSDPTQWTAFLGLHDQSQRSAPGVQERRLKRIISHPFFNDFTFDYDIALLELEKPAEYSSMVRPISLPDASHVFPAGKAIWVTGWGHTQYGGTGALILQKGEIRVINQTTCENLLPQQITPRMMCVGFLSGGVDSCDGDSGGPLSSVEADGRIFQAGVVSWGVGCAQRNKPGVYTRLPLFRDWIKENTGV
B1: the EC50 hC3 cleavage stood at 39.8 nM.

B2: MTSP-1 protease domain I41G/F97E/F99L/C122S/Q192A (enzyme)
chain: B1 chain with V20A, S26G, F44Y, F92E, F94L, D188A, V214D
With B2, the EC50 hC3 cleavage was found to be 30.1 nM.

B3: MTSP-1 Q38H/I41S/D60bT/F60eS/Y60gW/D96K/F97G/T98P/F99L/C122S/G151H/Q175L/Q192D (enzyme)
chain: VVGGTDADEGEWPWQVSLHALGHGHSCGASLISPNWLVSAAHCYIDTRGSRWSDPTQWTAFLGLHDQSQRSAPGVQERRLKRIISHPFFNKGPLDYDIALLELEKPAEYSSMVRPISLPDASHVFPAGKAIWVTGWGHTQYGGTHALILQKGEIRVINQTTCENLLPQLITPRMMCVGFLSGGVDSCDGDSGGPLSSVEADGRIFQAGVVSWGDGCAQRNKPGVYTRLPLFRDWIKENTGV
B3 returned an EC50 of hC3 cleavage of 7.88 nM.

B4: MTSP-1 protease domain I41S/ins97aT/F99L/C122S/Q175R/Q192H (enzyme)
chain: VVGGTDADEGEWPWQVSLHALGQGHSCGASLISPNWLVSAAHCYIDDRGFRYSDPTQWTAFLGLHDQSQRSAPGVQERRLKRIISHPFFNDFTTLDYDIALLELEKPAEYSSMVRPISLPDASHVFPAGKAIWVTGWGHTQYGGTGALILQKGEIRVINQTTCENLLPQRITPRMMCVGFLSGGVDSCHGDSGGPLSSVEADGRIFQAGVVSWGDGCAQRNKPGVYTRLPLFRDWIKENTGV
The molecule B4 displayed an EC50 hC3 cleavage of 27.5 nM.

B5: MTSP-1 protease domain I41S/Y59F/ins97aV/C122S/Q192A (enzyme)
chain: B4 chain with Y44F, T93V, L95F, R170Q, H189A
As to B5, the EC50 hC3 cleavage stood at 16.6 nM.

B6: MTSP-1 protease domain I41S/Y59F/ins97aV/C122S/G187D/Q192V/D217V (enzyme)
chain: B4 chain with Y44F, T93V, L95F, R170Q, G184D, H189V, D215V
B6 displayed an EC50 hC3 cleavage of 8.35 nM.

B7: MTSP-1 protease domain Q38H/I41S/D96S/ins97aK/C122S/G151N/Q192A (enzyme)
chain: B4 chain with Q23H, D91S, T93K, L95F, G146N, R170Q, H189A
Consider B7, for which the EC50 hC3 cleavage turned out to be 16.7 nM.

B8: MTSP-1 protease domain Q38H/I41S/D96V/ins97aA/C122S/G151N/Q192A (enzyme)
chain: B4 chain with Q23H, D91V, T93A, L95F, G146N, R170Q, H189A
For B8, the EC50 hC3 cleavage was 16 nM.

B9: MTSP-1 protease domain L33M/Q38F/I41S/D96A/ins97aW/C122S/G151N/Q192S (enzyme)
chain: B4 chain with L18M, Q23F, D91A, T93W, L95F, G146N, R170Q, H189S
Consider B9, for which the EC50 hC3 cleavage is 10.6 nM.

B10: MTSP-1 protease domain Q38W/I41S/D96R/ins97aA/C122S/G151N/Q192A (enzyme)
chain: B4 chain with Q23W, D91R, T93A, L95F, G146N, R170Q, H189A
On to B10, for which the EC50 hC3 cleavage worked out at 9.5 nM.

B11: MTSP-1 protease domain I41S/Y59F/ins97aV/C122S/Q192G (enzyme)
chain: B4 chain with Y44F, T93V, L95F, R170Q, H189G
B11 registered an EC50 hC3 cleavage of 25.6 nM.

B12: MTSP-1 protease domain I41S/S90T/ins97aV/C122S/Q192V/D217V (enzyme)
chain: B4 chain with S85T, T93V, L95F, R170Q, H189V, D215V
Molecule B12 gave an EC50 hC3 cleavage of 10.5 nM.

B13: MTSP-1 Q38H/I41S/D60bT/F60eS/D96K/F97G/ins97aV/T98P/F99L/C122S/G151H/Q175L/Q192D (enzyme)
chain: B4 chain with Q23H, D47T, F50S, D91K, F92G, T93V, T94P, G146H, R170L, H189D
In the case of B13, the EC50 of hC3 cleavage worked out at 22.2 nM.

B14: MTSP-1 protease domain Q38W/I41V/D96R/ins97aA/C122S/G151N (enzyme)
chain: B4 chain with Q23W, S26V, D91R, T93A, L95F, G146N, R170Q, H189Q
Regarding B14, the EC50 hC3 cleavage was determined as 4.49 nM.

B15: MTSP-1 Q38H/I41S/D60bT/F60eS/Y60gW/D96K/F97G/ins97aV/F99L/C122S/G151H/Q175L/Q192D (enzyme)
chain: B4 chain with Q23H, D47T, F50S, Y52W, D91K, F92G, T93V, G146H, R170L, H189D
In turn, B15 registered an EC50 of hC3 cleavage of 9.83 nM.

B16: MTSP-1 protease domain I41A/F97G/ins97aM/T98L/C122S (enzyme)
chain: B4 chain with S26A, F92G, T93M, T94L, L95F, R170Q, H189Q
B16 had an EC50 hC3 cleavage of 40.1 nM.

B17: MTSP-1 protease domain Q38H/I41S/D96K/ins97aT/C122S/G151K/Q192A (enzyme)
chain: B4 chain with Q23H, D91K, L95F, G146K, R170Q, H189A
The molecule B17 yielded an EC50 hC3 cleavage of 19.2 nM.

B18: MTSP-1 protease domain Q38F/I41V/D96Q/ins97aT/C122S/G151D (enzyme)
chain: B4 chain with Q23F, S26V, D91Q, L95F, G146D, R170Q, H189Q
As for B18, the EC50 hC3 cleavage amounted to 9.89 nM.

B19: MTSP-1 protease domain Q38H/I41A/D96R/ins97aQ/C122S (enzyme)
chain: B4 chain with Q23H, S26A, D91R, T93Q, L95F, R170Q, H189Q
The molecule B19 showed an EC50 hC3 cleavage of 7.6 nM.

B20: MTSP-1 protease domain Q38H/I41S/D96K/ins97aD/C122S/G151N/Q192S (enzyme)
chain: B4 chain with Q23H, D91K, T93D, L95F, G146N, R170Q, H189S
With B20, the EC50 hC3 cleavage is 26.8 nM.

B21: MTSP-1 protease domain Q38Y/I41A/D96I/ins97aQ/C122S (enzyme)
chain: B4 chain with Q23Y, S26A, D91I, T93Q, L95F, R170Q, H189Q
Molecule B21 showed an EC50 hC3 cleavage of 4.26 nM.

B22: MTSP-1 protease domain Q38H/I41A/D96A/ins97aA/C122S/G151D/Q192T (enzyme)
chain: B4 chain with Q23H, S26A, D91A, T93A, L95F, G146D, R170Q, H189T
With B22, the EC50 hC3 cleavage worked out at 9.25 nM.

B23: MTSP-1 protease domain Q38H/I41S/D96Q/ins97aT/C122S/G151N/Q192A (enzyme)
chain: B4 chain with Q23H, D91Q, L95F, G146N, R170Q, H189A
As for B23, the EC50 hC3 cleavage came to 17.9 nM.

B24: MTSP-1 protease domain I41S/Y60gW/ins97aN/F99L/C122S/Q175R/Q192T (enzyme)
chain: B4 chain with Y52W, T93N, H189T
In the case of B24, the EC50 hC3 cleavage stood at 12 nM.

B25: MTSP-1 protease domain I41S/Y59F/F97S/ins97aV/S116Y/C122S/Q192G/D217V (enzyme)
chain: B4 chain with Y44F, F92S, T93V, L95F, S112Y, R170Q, H189G, D215V
The molecule B25 registered an EC50 hC3 cleavage of 8.22 nM.

B26: MTSP-1 protease domain Q38Y/I41T/D96M/ins97aS/C122S/G151N (enzyme)
chain: B4 chain with Q23Y, S26T, D91M, T93S, L95F, G146N, R170Q, H189Q
The molecule B26 came in with an EC50 hC3 cleavage of 12.5 nM.

B27: MTSP-1 protease domain I41S/F93L/ins97aV/C122S/Q192V/D217V (enzyme)
chain: B4 chain with F88L, T93V, L95F, R170Q, H189V, D215V
Regarding B27, the EC50 hC3 cleavage stood at 9.82 nM.

B28: MTSP-1 protease domain Q38H/I41S/ins97aV/A112V/C122S/Q192A/Q209L (enzyme)
chain: B4 chain with Q23H, T93V, L95F, A108V, R170Q, H189A, Q207L
Turning to B28, the EC50 hC3 cleavage is 10.9 nM.

B29: MTSP-1 protease domain I41S/ins97aV/C122S/Q192V/D217V (enzyme)
chain: B4 chain with T93V, L95F, R170Q, H189V, D215V
B29 yielded an EC50 hC3 cleavage of 11 nM.

B30: MTSP-1 protease domain I41S/D96E/ins97aG/C122S/G151Q/Q192A (enzyme)
chain: B4 chain with D91E, T93G, L95F, G146Q, R170Q, H189A
On to B30, for which the EC50 hC3 cleavage is 44.4 nM.

B31: MTSP-1 protease domain Q38H/I41S/D96G/ins97aG/C122S/G151N/Q192A (enzyme)
chain: B4 chain with Q23H, D91G, T93G, L95F, G146N, R170Q, H189A
Take B31: the EC50 hC3 cleavage is 34.6 nM.

B32: MTSP-1 protease domain Q38H/I41T/D96M/ins97aA/C122S/G151D (enzyme)
chain: B4 chain with Q23H, S26T, D91M, T93A, L95F, G146D, R170Q, H189Q
For the molecule B32, the EC50 hC3 cleavage amounted to 10.8 nM.

B33: MTSP-1 protease domain Q38H/I41T/D96K/ins97aL/C122S/G151N/Q192A (enzyme)
chain: B4 chain with Q23H, S26T, D91K, T93L, L95F, G146N, R170Q, H189A
The molecule B33 came in with an EC50 hC3 cleavage of 44.7 nM.

B34: MTSP-1 protease domain I41S/F97V/ins97aV/T98P/C122S (enzyme)
chain: B4 chain with F92V, T93V, T94P, L95F, R170Q, H189Q
The molecule B34 came in with an EC50 hC3 cleavage of 30.9 nM.

B35: MTSP-1 protease domain Q38H/I41S/D96Q/ins97aA/C122S/Q192T (enzyme)
chain: B4 chain with Q23H, D91Q, T93A, L95F, R170Q, H189T
The molecule B35 had an EC50 hC3 cleavage of 10.2 nM.

B36: MTSP-1 protease domain I41S/ins97aV/C122S/Q192G/Q209L (enzyme)
chain: B4 chain with T93V, L95F, R170Q, H189G, Q207L
In turn, B36 showed an EC50 hC3 cleavage of 33.4 nM.

B37: MTSP-1 protease domain Q38H/I41S/D96K/ins97aS/C122S/G151P/Q192S (enzyme)
chain: B4 chain with Q23H, D91K, T93S, L95F, G146P, R170Q, H189S
Molecule B37 displayed an EC50 hC3 cleavage of 25.6 nM.

B38: MTSP-1 protease domain I41S/S90P/ins97aV/C122S/Y146E/Q192N/D217V (enzyme)
chain: B4 chain with S85P, T93V, L95F, Y142E, R170Q, H189N, D215V
On to B38, for which the EC50 hC3 cleavage is 6.47 nM.

B39: MTSP-1 protease domain I41S/S90T/ins97aV/C122S/Q192N/D217V (enzyme)
chain: B4 chain with S85T, T93V, L95F, R170Q, H189N, D215V
B39 showed an EC50 hC3 cleavage of 13.4 nM.
